Test results reported in patent US20080026077A1, “METHODS AND COMPOSITIONS OF GENE DELIVERY AGENTS FOR SYSTEMIC AND LOCAL THERAPY” (priority 2002, published 2008).
Where two headings read alike, the source gives them in different places. Marks after values point to notes of the source that are not given here. No end group written: not given here.

Key:
[1] = Critical micellar concentration (CMC) of BACs, dye solubilization method; assay type: physicochemical; conditions: DPH dye solubilization, 50 mM Tris buffer pH 8.0
Experimental: Briefly, serial dilutions of a 7 mg/ml solution of the BACs are made in 50 mM Tris buffer pH 8.0. 10 ul of the dye 1,6-diphenyl-1,3,5-hexatriene (DPH, Sigma) (0.4 mM in methanol) is added to each ml. After overnight RT incubation in the dark, the absorbance of the samples at 356 nm is recorded. Linear regression of the data points above baseline was performed and the calculated CMC derived from the x intercept. The results for thirteen different BACs are shown in Table 1 based on a chendoxycholamide of the detailed motifs.

[2] = Oral gavage of zanamivir with various BAC analogs, plasma zanamivir; assay type: in vivo, Male Swiss CFW mice; conditions: fasted mice, 1 mg/kg zanamivir, BAC 1x equal molar; for Increase in concentration above H2O control / Mean Plasma Zanamivir Concentration: 30 min
From the text: Plasma zanamivir concentrations are quantified by LC/MS/MS analysis.

[3] = tibia, 24 hours after oral dosing, 4 mg/kg alendronate, with or without 4× molar BAC-A6
Experimental: Male Swiss CFW mice 25-28 g are fed or fasted overnight and subsequently lightly anesthetized with isoflurane by inhalation prior to oral dosing. Mice are administered 0.2 ml of the dosing solution. 24 hrs after dosing the mice are sacrificed and the tibia collected. […] The amount of 14CO2 is quantified by scintillation counting.

[4] = In situ intestinal absorption, single pass perfusion of radiolabeled BAC/pDNA; assay type: in vivo; conditions: complexes with membrane translocating BAC
Experimental: In order to examine the capability of the BAC/pDNA complex to bind and/or be absorbed onto the intestinal lumen cells the absorption of nicked-radiolabeled pDNA in a single pass perfusion experiment is tested. Using isolated ileal or jejunal segments radio-labeled BAC/pDNA mixtures mixture is mixed with HEPES buffer, pH 7.4, and perused at jejunal (filled symbols) and ileal (open symbols) sites. After 30 min of steady state, sample fractions are collected and the absorbed fraction of BAC/pDNA calculated. BAC/pDNA mixtures used are pDNA:BAC 1:27,000 neutrally charged and 1:54,000 molar ratios positively charged. Uncomplexed pDNA is used as a control.

[5] = Octanol/buffer partitioning of carboxyfluorescein mixed with BAC analogs; assay type: physicochemical; conditions: 4 nmoles carboxyfluorescein, 281 nmoles BAC
Experimental: Partitioning of the fluorescent compound carboxyfluorescein by a BAC of Formula I into the octanol phase of an octanol/buffer portioning system for a series of BAC compounds is determined following standard methods. […] The mixture is vortexed for 5 mins and the incubated at room temperature for 3 hours. The solution is centrifuged to facilitate complete phase separation and a 100 μl of aqueous material is withdrawn for fluorescent measurement.

Compound	Calculated CMC concentration [1]	Increase in concentration above H2O control [2] [fold]	Mean Plasma Zanamivir Concentration [2] [ng/mL]	other results
C8: chendoxycholamide bile acid conjugate, peptide Z = -RRARRARR (not fully specified (N-terminus); printed as -RRARRARR; also: chenodeoxycholamide bile acid conjugate, attachment not placed)	4.4 mM	4	223	–
D9: chendoxycholamide bile acid conjugate, peptide Z = -RARARARAR (not fully specified (N-terminus); printed as -RARARARAR; also: chenodeoxycholamide bile acid conjugate, attachment not placed)	1.7 mM	–	–	–
NCCCC(O)(P(=O)(O)O)P(=O)(O)O [Alendronate, alendronate]	–	–	–	Bone deposition of 14C-alendronate, mean dpm/mg bone ([3]; Fasted mice): 3.92 dpm/mg; Bone deposition of 14C-alendronate, mean dpm/mg bone ([3]; Fed mice): 9.51 dpm/mg
CC(=O)N[C@H]1[C@H]([C@H](O)[C@H](O)CO)OC(C(=O)O)=C[C@@H]1N=C(N)N [Zanamivir, zanamivir, reference compound]	–	1	–	concentration at 30 min ([2]; male, Swiss CFW, mouse, plasma): 55 ng/mL
membrane translocating BAC: 12-residue membrane translocating peptide (SEQ ID NO: 23) coupled to bile acid by an ether linkage (AAVLLPVLLAAP; also: coupled to bile acid by an ether linkage, site not given here)	–	–	–	in situ intestinal absorption compared with FIG. 7 [4]: comparable results to those depicted in FIG. 7
Carboxyfluorescein	–	–	–	Fluorescence Units ([5]; aqueous phase after octanol/buffer partitioning): 78614; LogD ([5]; carboxyfluorescein, octanol/buffer): −1.638
N-E9 motif of chenoxycholamide (RAWARAWAR; also: chenodeoxycholamide bile acid conjugate, site not given here)	1.2 mM	22	1227	–
B7: chendoxycholamide bile acid conjugate, peptide Z = -RRRARRR (not fully specified (N-terminus); printed as -RRRARRR; also: chenodeoxycholamide bile acid conjugate, attachment not placed)	>5.0* mM	4	228	–
